Measurements as given in patent publication US20220204580A1 (AstraZeneca / MedImmune, published 2022).
Numbered stars: 1 amine (or outer) side, 2 acyl side, 3 side chain; on linkers, the order of the positions; unused ones are H or OH. Bridge positions count the residues as written; N and C are the ends. Square brackets hold non-standard residues; d marks the D form. Side chains are listed from the residue outwards. Ends that are not written are not given here. * marks the point of attachment. C20 diacid = O=C(O)CCCCCCCCCCCCCCCCCCC(=O)*; C18 diacid = O=C(O)CCCCCCCCCCCCCCCCC(=O)*; γGlu = O=C(O)[C@H](CCC(=O)[*:2])N[*:1]; Hyp = O=C(O)[C@@H]1C[C@@H](O)CN1; αMeF = C[C@](N)(Cc1ccccc1)C(=O)O; Dab = NCC[C@H](N)C(=O)O; Aib = CC(C)(N)C(=O)O

T1: human amylin receptor (calcitonin receptor co-expressed with receptor activity modifying protein, RAMP3) (human, UniProt P30988 25-474; O60896 24-148)
T1 sequence (looked up) 1: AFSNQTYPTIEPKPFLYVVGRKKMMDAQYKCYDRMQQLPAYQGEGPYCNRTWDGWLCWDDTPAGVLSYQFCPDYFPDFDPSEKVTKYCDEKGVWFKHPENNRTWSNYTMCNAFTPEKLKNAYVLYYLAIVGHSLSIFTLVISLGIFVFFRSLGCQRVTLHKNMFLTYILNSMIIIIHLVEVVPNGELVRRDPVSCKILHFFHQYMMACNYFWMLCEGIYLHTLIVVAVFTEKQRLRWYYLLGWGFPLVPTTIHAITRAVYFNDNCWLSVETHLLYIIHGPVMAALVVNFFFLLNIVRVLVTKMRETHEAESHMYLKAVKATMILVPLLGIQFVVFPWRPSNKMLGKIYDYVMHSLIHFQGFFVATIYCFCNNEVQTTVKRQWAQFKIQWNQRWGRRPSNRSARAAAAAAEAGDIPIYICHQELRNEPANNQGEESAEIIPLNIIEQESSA
T1 sequence (looked up) 2: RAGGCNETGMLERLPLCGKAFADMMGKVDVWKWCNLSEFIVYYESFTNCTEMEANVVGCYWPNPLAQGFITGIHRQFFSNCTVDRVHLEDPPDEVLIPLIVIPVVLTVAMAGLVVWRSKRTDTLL

T2: human calcitonin receptor (human, UniProt P30988 25-474)
T2 sequence (looked up): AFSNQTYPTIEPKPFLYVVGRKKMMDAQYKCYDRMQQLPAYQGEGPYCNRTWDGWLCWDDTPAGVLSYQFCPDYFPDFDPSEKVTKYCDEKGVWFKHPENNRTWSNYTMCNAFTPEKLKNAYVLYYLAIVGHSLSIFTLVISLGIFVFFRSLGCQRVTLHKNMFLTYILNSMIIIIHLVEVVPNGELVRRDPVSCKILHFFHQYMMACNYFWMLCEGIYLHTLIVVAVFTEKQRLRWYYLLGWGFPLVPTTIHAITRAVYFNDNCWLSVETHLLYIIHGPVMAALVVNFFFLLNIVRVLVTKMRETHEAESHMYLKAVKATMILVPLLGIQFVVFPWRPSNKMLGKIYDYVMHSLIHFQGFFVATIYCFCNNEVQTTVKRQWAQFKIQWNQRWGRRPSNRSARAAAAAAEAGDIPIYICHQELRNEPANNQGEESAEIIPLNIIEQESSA


What was measured:
[1] = target: T1, human amylin receptor (calcitonin …); test: cell-based or functional assay
[2] = target: T2, human calcitonin receptor; test: cell-based or functional assay

EC50 (cAMP production) [1] [nM]	Ratio (EC50 hCTR / EC50 hAMYR3) [1]	EC50 (cAMP production) [2] [nM]	Binder
0.196	10	2.04	K([γGlu-γGlu-C18 diacid])CNTATCATQRLANFLVHSSNN[αMeF]GPILPPTNVGSNTY-NH2 (disulfide 2-7) [Peptide 13 (SEQ ID NO: 13)]
1.33	5	6.07	K([γGlu-γGlu-C20 diacid])CNTATCATQRLANFLVHSS[Aib]NF[Hyp]AILSPTNVGSNTY-NH2 (disulfide 2-7; not fully specified; printed as K(γE-γE-C20diacid)[CNTATC]ATQRLANFLVHSS(Aib)NF(Hyp)AILSPTNVGSNTY-amide) [Peptide 121 (SEQ ID NO: 121)]
1.46	24	34.7	K([γGlu-γGlu-C20 diacid])CNTATCATQRLANFLVHSPPNFPAILSPTNVGSNTY-NH2 (disulfide 2-7; N-terminus assumed; SMILES CC[C@H](C)[C@H](NC(=O)[C@H](C)NC(=O)[C@@H]1CCCN1C(=O)[C@H](Cc1ccccc1)NC(=O)[C@H](CC(N)=O)NC(=O)[C@@H]1CCCN1C(=O)[C@@H]1CCCN1C(=O)[C@H](CO)NC(=O)[C@H](Cc1c[nH]cn1)NC(=O)[C@@H](NC(=O)[C@H](CC(C)C)NC(=O)[C@H](Cc1ccccc1)NC(=O)[C@H](CC(N)=O)NC(=O)[C@H](C)NC(=O)[C@H](CC(C)C)NC(=O)[C@H](CCCNC(=N)N)NC(=O)[C@H](CCC(N)=O)NC(=O)[C@@H](NC(=O)[C@H](C)NC(=O)[C@@H]1CSSC[C@H](NC(=O)[C@@H](N)CCCCNC(=O)CC[C@H](NC(=O)CC[C@H](NC(=O)CCCCCCCCCCCCCCCCCCC(=O)O)C(=O)O)C(=O)O)C(=O)N[C@@H](CC(N)=O)C(=O)N[C@@H]([C@@H](C)O)C(=O)N[C@@H](C)C(=O)N[C@@H]([C@@H](C)O)C(=O)N1)[C@@H](C)O)C(C)C)C(=O)N[C@@H](CC(C)C)C(=O)N[C@@H](CO)C(=O)N1CCC[C@H]1C(=O)N[C@H](C(=O)N[C@@H](CC(N)=O)C(=O)N[C@H](C(=O)NCC(=O)N[C@@H](CO)C(=O)N[C@@H](CC(N)=O)C(=O)N[C@H](C(=O)N[C@@H](Cc1ccc(O)cc1)C(N)=O)[C@@H](C)O)C(C)C)[C@@H](C)O) [Peptide 119 (SEQ ID NO: 119)]
1.77	6	10.7	K([γGlu-γGlu-C20 diacid])CNAATCATQRLANWLVHSSPNFPAILSPTNVGSNTY-NH2 (disulfide 2-7; N-terminus assumed; SMILES CC[C@H](C)[C@H](NC(=O)[C@H](C)NC(=O)[C@@H]1CCCN1C(=O)[C@H](Cc1ccccc1)NC(=O)[C@H](CC(N)=O)NC(=O)[C@@H]1CCCN1C(=O)[C@H](CO)NC(=O)[C@H](CO)NC(=O)[C@H](Cc1c[nH]cn1)NC(=O)[C@@H](NC(=O)[C@H](CC(C)C)NC(=O)[C@H](Cc1c[nH]c2ccccc12)NC(=O)[C@H](CC(N)=O)NC(=O)[C@H](C)NC(=O)[C@H](CC(C)C)NC(=O)[C@H](CCCNC(=N)N)NC(=O)[C@H](CCC(N)=O)NC(=O)[C@@H](NC(=O)[C@H](C)NC(=O)[C@@H]1CSSC[C@H](NC(=O)[C@@H](N)CCCCNC(=O)CC[C@H](NC(=O)CC[C@H](NC(=O)CCCCCCCCCCCCCCCCCCC(=O)O)C(=O)O)C(=O)O)C(=O)N[C@@H](CC(N)=O)C(=O)N[C@@H](C)C(=O)N[C@@H](C)C(=O)N[C@@H]([C@@H](C)O)C(=O)N1)[C@@H](C)O)C(C)C)C(=O)N[C@@H](CC(C)C)C(=O)N[C@@H](CO)C(=O)N1CCC[C@H]1C(=O)N[C@H](C(=O)N[C@@H](CC(N)=O)C(=O)N[C@H](C(=O)NCC(=O)N[C@@H](CO)C(=O)N[C@@H](CC(N)=O)C(=O)N[C@H](C(=O)N[C@@H](Cc1ccc(O)cc1)C(N)=O)[C@@H](C)O)C(C)C)[C@@H](C)O) [Peptide 120 (SEQ ID NO: 120)]
0.77	4	3.19	K([γGlu-γGlu-C20 diacid])CNTATCATQRLANFLVHSS[Aib]NFPAILSPTNVGSNTY-NH2 (disulfide 2-7; N-terminus assumed; SMILES CC[C@H](C)[C@H](NC(=O)[C@H](C)NC(=O)[C@@H]1CCCN1C(=O)[C@H](Cc1ccccc1)NC(=O)[C@H](CC(N)=O)NC(=O)C(C)(C)NC(=O)[C@H](CO)NC(=O)[C@H](CO)NC(=O)[C@H](Cc1c[nH]cn1)NC(=O)[C@@H](NC(=O)[C@H](CC(C)C)NC(=O)[C@H](Cc1ccccc1)NC(=O)[C@H](CC(N)=O)NC(=O)[C@H](C)NC(=O)[C@H](CC(C)C)NC(=O)[C@H](CCCNC(=N)N)NC(=O)[C@H](CCC(N)=O)NC(=O)[C@@H](NC(=O)[C@H](C)NC(=O)[C@@H]1CSSC[C@H](NC(=O)[C@@H](N)CCCCNC(=O)CC[C@H](NC(=O)CC[C@H](NC(=O)CCCCCCCCCCCCCCCCCCC(=O)O)C(=O)O)C(=O)O)C(=O)N[C@@H](CC(N)=O)C(=O)N[C@@H]([C@@H](C)O)C(=O)N[C@@H](C)C(=O)N[C@@H]([C@@H](C)O)C(=O)N1)[C@@H](C)O)C(C)C)C(=O)N[C@@H](CC(C)C)C(=O)N[C@@H](CO)C(=O)N1CCC[C@H]1C(=O)N[C@H](C(=O)N[C@@H](CC(N)=O)C(=O)N[C@H](C(=O)NCC(=O)N[C@@H](CO)C(=O)N[C@@H](CC(N)=O)C(=O)N[C@H](C(=O)N[C@@H](Cc1ccc(O)cc1)C(N)=O)[C@@H](C)O)C(C)C)[C@@H](C)O) [Peptide 117 (SEQ ID NO: 117)]
0.655	9	6.18	K([γGlu-γGlu-C18 diacid])CNTATCATQRLANFLVHSS[Aib]NFPAILSPT[Dab]VGSNTY-NH2 (disulfide 2-7; N-terminus assumed; SMILES CC[C@H](C)[C@H](NC(=O)[C@H](C)NC(=O)[C@@H]1CCCN1C(=O)[C@H](Cc1ccccc1)NC(=O)[C@H](CC(N)=O)NC(=O)C(C)(C)NC(=O)[C@H](CO)NC(=O)[C@H](CO)NC(=O)[C@H](Cc1c[nH]cn1)NC(=O)[C@@H](NC(=O)[C@H](CC(C)C)NC(=O)[C@H](Cc1ccccc1)NC(=O)[C@H](CC(N)=O)NC(=O)[C@H](C)NC(=O)[C@H](CC(C)C)NC(=O)[C@H](CCCNC(=N)N)NC(=O)[C@H](CCC(N)=O)NC(=O)[C@@H](NC(=O)[C@H](C)NC(=O)[C@@H]1CSSC[C@H](NC(=O)[C@@H](N)CCCCNC(=O)CC[C@H](NC(=O)CC[C@H](NC(=O)CCCCCCCCCCCCCCCCC(=O)O)C(=O)O)C(=O)O)C(=O)N[C@@H](CC(N)=O)C(=O)N[C@@H]([C@@H](C)O)C(=O)N[C@@H](C)C(=O)N[C@@H]([C@@H](C)O)C(=O)N1)[C@@H](C)O)C(C)C)C(=O)N[C@@H](CC(C)C)C(=O)N[C@@H](CO)C(=O)N1CCC[C@H]1C(=O)N[C@H](C(=O)N[C@@H](CCN)C(=O)N[C@H](C(=O)NCC(=O)N[C@@H](CO)C(=O)N[C@@H](CC(N)=O)C(=O)N[C@H](C(=O)N[C@@H](Cc1ccc(O)cc1)C(N)=O)[C@@H](C)O)C(C)C)[C@@H](C)O) [Peptide 122 (SEQ ID NO: 122)]
0.417	2	0.792	K([γGlu-γGlu-C20 diacid])CNIATCATQRLANFLVHSIANFGPILPPTNVGSRTY-NH2 (disulfide 2-7; N-terminus assumed; SMILES CC[C@H](C)[C@H](NC(=O)[C@H](CO)NC(=O)[C@H](Cc1c[nH]cn1)NC(=O)[C@@H](NC(=O)[C@H](CC(C)C)NC(=O)[C@H](Cc1ccccc1)NC(=O)[C@H](CC(N)=O)NC(=O)[C@H](C)NC(=O)[C@H](CC(C)C)NC(=O)[C@H](CCCNC(=N)N)NC(=O)[C@H](CCC(N)=O)NC(=O)[C@@H](NC(=O)[C@H](C)NC(=O)[C@@H]1CSSC[C@H](NC(=O)[C@@H](N)CCCCNC(=O)CC[C@H](NC(=O)CC[C@H](NC(=O)CCCCCCCCCCCCCCCCCCC(=O)O)C(=O)O)C(=O)O)C(=O)N[C@@H](CC(N)=O)C(=O)N[C@@H]([C@@H](C)CC)C(=O)N[C@@H](C)C(=O)N[C@@H]([C@@H](C)O)C(=O)N1)[C@@H](C)O)C(C)C)C(=O)N[C@@H](C)C(=O)N[C@@H](CC(N)=O)C(=O)N[C@@H](Cc1ccccc1)C(=O)NCC(=O)N1CCC[C@H]1C(=O)N[C@H](C(=O)N[C@@H](CC(C)C)C(=O)N1CCC[C@H]1C(=O)N1CCC[C@H]1C(=O)N[C@H](C(=O)N[C@@H](CC(N)=O)C(=O)N[C@H](C(=O)NCC(=O)N[C@@H](CO)C(=O)N[C@@H](CCCNC(=N)N)C(=O)N[C@H](C(=O)N[C@@H](Cc1ccc(O)cc1)C(N)=O)[C@@H](C)O)C(C)C)[C@@H](C)O)[C@@H](C)CC) [Peptide 118 (SEQ ID NO: 118)]
